B1: KRT18 (parent)
chain: RAQYDELARKNREELDKYWSQQIE
B2: ADD1 (parent)
chain: LRHSFQKQQREKTRWLNSGRGDEA

Variants of: B1
Assay: protein stability index of a GFP-peptide fusion (GPS, HEK-293T) (PSI 1-6); higher = more stable
Conditions: c terminus: a fixed tail appended
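Note: lentivirally expressed fusions sorted by FACS into six bins by GFP to DsRed ratio, PSI derived from sequencing read proportions per bin multiplied by bin number.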

Q: For RALYDELARKNREELDKYWSQQIE [Q3L], which protein stability index is on record?
A: 2.55

Q: With RAAYDELARKNREELDKYWSQQIE [Q3A] as the variant, how does the protein stability index read?
A: 2.68

Q: Which protein stability index does the source give for RAVYDELARKNREELDKYWSQQIE [Q3V] here?
A: 2.31

Q: Which protein stability index does the source give for RAWYDELARKNREELDKYWSQQIE [Q3W] here?
A: 2.07

Q: With RAKYDELARKNREELDKYWSQQIE [Q3K] as the variant, how does the protein stability index read?
A: 3.19

Q: Which protein stability index does the source give for RAMYDELARKNREELDKYWSQQIE [Q3M] here?
A: 2.52

Q: Which protein stability index does the source give for RAHYDELARKNREELDKYWSQQIE [Q3H] here?
A: 2.54

Q: With RAYYDELARKNREELDKYWSQQIE [Q3Y] as the variant, how does the protein stability index read?
A: 2.56

Q: With RASYDELARKNREELDKYWSQQIE [Q3S] as the variant, how does the protein stability index read?
A: 2.21

Q: With RACYDELARKNREELDKYWSQQIE [Q3C] as the variant, how does the protein stability index read?
A: 2.51

Q: With RAFYDELARKNREELDKYWSQQIE [Q3F] as the variant, how does the protein stability index read?
A: 2.38

Q: Which protein stability index does the source give for RAIYDELARKNREELDKYWSQQIE [Q3I] here?
A: 2.44

Q: With RAGYDELARKNREELDKYWSQQIE [Q3G] as the variant, how does the protein stability index read?
A: 3.21

Q: With RAEYDELARKNREELDKYWSQQIE [Q3E] as the variant, how does the protein stability index read?
A: 3.19

Q: Which protein stability index does the source give for RARYDELARKNREELDKYWSQQIE [Q3R] here?
A: 3.27

Q: With RAPYDELARKNREELDKYWSQQIE [Q3P] as the variant, how does the protein stability index read?
A: 2.94

Q: For RATYDELARKNREELDKYWSQQIE [Q3T], which protein stability index is on record?
A: 2.89

Q: With RANYDELARKNREELDKYWSQQIE [Q3N] as the variant, how does the protein stability index read?
A: 4.45

Q: With RADYDELARKNREELDKYWSQQIE [Q3D] as the variant, how does the protein stability index read?
A: 3.54

Q: For RAQYDENARKNREELDKYWSQQIE [L7N], which protein stability index is on record?
A: 4.22

Q: For RAQYDEQARKNREELDKYWSQQIE [L7Q], which protein stability index is on record?
A: 3.78

Q: With RAQYDEIARKNREELDKYWSQQIE [L7I] as the variant, how does the protein stability index read?
A: 3.41

Q: Which protein stability index does the source give for RAQYDEAARKNREELDKYWSQQIE [L7A] here?
A: 3.7

Q: With RAQYDEDARKNREELDKYWSQQIE [L7D] as the variant, how does the protein stability index read?
A: 3

Q: Which protein stability index does the source give for RAQYDEGARKNREELDKYWSQQIE [L7G] here?
A: 3.19

Q: Which protein stability index does the source give for RAQYDEFARKNREELDKYWSQQIE [L7F] here?
A: 1.27

Q: Which protein stability index does the source give for RAQYDECARKNREELDKYWSQQIE [L7C] here?
A: 3.42

Q: With RAQYDEEARKNREELDKYWSQQIE [L7E] as the variant, how does the protein stability index read?
A: 2.75

Q: Which protein stability index does the source give for RAQYDEMARKNREELDKYWSQQIE [L7M] here?
A: 2.38

Q: For RAQYDEHARKNREELDKYWSQQIE [L7H], which protein stability index is on record?
A: 3.62

Q: Which protein stability index does the source give for RAQYDEKARKNREELDKYWSQQIE [L7K] here?
A: 3.93

Q: With RAQYDERARKNREELDKYWSQQIE [L7R] as the variant, how does the protein stability index read?
A: 3.89

Q: Which protein stability index does the source give for RAQYDEPARKNREELDKYWSQQIE [L7P] here?
A: 4.08

Variants of: B2
Assay: as above
Conditions: c terminus: a fixed tail appended

Q: With LRHSFQKQQREKTRWLNSGRGDEL [A24L] as the variant, how does the protein stability index read?
A: 3.08

Q: Which protein stability index does the source give for LRHSFQKQQREKTRWLNSGRGDEP [A24P] here?
A: 3.58

Q: For LRHSFQKQQREKTRWLNSGRGDER [A24R], which protein stability index is on record?
A: 3.93

Q: With LRHSFQKQQREKTRWLNSGRGDEF [A24F] as the variant, how does the protein stability index read?
A: 2.69

Q: With LRHSFQKQQREKTRWLNSGRGDEY [A24Y] as the variant, how does the protein stability index read?
A: 3.18

Q: For LRHSFQKQQREKTRWLNSGRGDEK [A24K], which protein stability index is on record?
A: 4.12

Q: Which protein stability index does the source give for LRHSFQKQQREKTRWLNSGRGDEC [A24C] here?
A: 3.51

Q: Which protein stability index does the source give for LRHSFQKQQREKTRWLNSGRGDEN [A24N] here?
A: 4.03

Q: For LRHSFQKQQREKTRWLNSGRGDEI [A24I], which protein stability index is on record?
A: 3.15

Q: For LRHSFQKQQREKTRWLNSGRGDEH [A24H], which protein stability index is on record?
A: 3.31

Q: With LRHSFQKQQREKTRWLNSGRGDEM [A24M] as the variant, how does the protein stability index read?
A: 3.56

Q: For LRHSFQKQQREKTRWLNSGRGDEQ [A24Q], which protein stability index is on record?
A: 4.03

Q: With LRHSFQKQQREKTRWLNSGRGDEG [A24G] as the variant, how does the protein stability index read?
A: 3.96

Q: With LRHSFQKQQREKTRWLNSGRGDEV [A24V] as the variant, how does the protein stability index read?
A: 3.56

Q: For LRHSFQKQQREKTRWLNSGRGDET [A24T], which protein stability index is on record?
A: 3.48

Q: Which protein stability index does the source give for LRHSFQKQQREKTRWLNSGRGDEW [A24W] here?
A: 1.65

Q: With LRHSFQKQQREKTRWLNSGRGDES [A24S] as the variant, how does the protein stability index read?
A: 3.9

Q: With LRHSFQKQQREKTRWLNSGRGDEE [A24E] as the variant, how does the protein stability index read?
A: 4.52

Q: For LRHSFQKQQREKTRWLNSGRGDED [A24D], which protein stability index is on record?
A: 3.95

Q: Which protein stability index does the source give for LRHSFQKQQREKTRWLNSGRGCEA [D22C] here?
A: 3.18

Q: Which protein stability index does the source give for LRHSFQKQQREKTRWLNSGRGEEA [D22E] here?
A: 3.89

Q: Which protein stability index does the source give for LRHSFQKQQREKTRWLNSGRGNEA [D22N] here?
A: 3.69

Q: Which protein stability index does the source give for LRHSFQKQQREKTRWLNSGRGIEA [D22I] here?
A: 2.68

Q: With LRHSFQKQQREKTRWLNSGRGAEA [D22A] as the variant, how does the protein stability index read?
A: 3.57

Q: Which protein stability index does the source give for LRHSFQKQQREKTRWLNSGRGGEA [D22G] here?
A: 3.62

Q: For LRHSFQKQQREKTRWLNSGRGFEA [D22F], which protein stability index is on record?
A: 3.64

Q: For LRHSFQKQQREKTRWLNSGRGVEA [D22V], which protein stability index is on record?
A: 3.25

Q: For LRHSFQKQQREKTRWLNSGRGHEA [D22H], which protein stability index is on record?
A: 3.94

Q: With LRHSFQKQQREKTRWLNSGRGPEA [D22P] as the variant, how does the protein stability index read?
A: 2.83

Q: With LRHSFQKQQREKTRWLNSGRGYEA [D22Y] as the variant, how does the protein stability index read?
A: 2.78

Q: For LRHSFQKQQREKTRWLNSGRGQEA [D22Q], which protein stability index is on record?
A: 3.74

Q: For LRHSFQKQQREKTRWLNSGRGSEA [D22S], which protein stability index is on record?
A: 3.9

Q: Which protein stability index does the source give for LRHSFQKQQREKTRWLNSGRGLEA [D22L] here?
A: 2.71

Q: With LRHSFQKQQREKTRWLNSGRGMEA [D22M] as the variant, how does the protein stability index read?
A: 3.47

Q: Which protein stability index does the source give for LRHSFQKQQREKTRWLNSGRGREA [D22R] here?
A: 3.73

Q: With LRHSFQKQQREKTRWLNSGRGWEA [D22W] as the variant, how does the protein stability index read?
A: 1.99

Q: For LRHSFQKQQREKTRWLNSGRGTEA [D22T], which protein stability index is on record?
A: 3.29

Q: Which protein stability index does the source give for LRHSFQKQQREKTRWLNSGRGKEA [D22K] here?
A: 3.4

Q: Which protein stability index does the source give for LRHSFQKQQREKTRWLNSGRGDSA [E23S] here?
A: 3.83

Q: Which protein stability index does the source give for LRHSFQKQQREKTRWLNSGRGDQA [E23Q] here?
A: 3.2

Q: Which protein stability index does the source give for LRHSFQKQQREKTRWLNSGRGDIA [E23I] here?
A: 3.24

Q: Which protein stability index does the source give for LRHSFQKQQREKTRWLNSGRGDFA [E23F] here?
A: 2.28

Q: For LRHSFQKQQREKTRWLNSGRGDTA [E23T], which protein stability index is on record?
A: 3.48

Q: Which protein stability index does the source give for LRHSFQKQQREKTRWLNSGRGDNA [E23N] here?
A: 3.73

Q: For LRHSFQKQQREKTRWLNSGRGDGA [E23G], which protein stability index is on record?
A: 3.64

Q: Which protein stability index does the source give for LRHSFQKQQREKTRWLNSGRGDMA [E23M] here?
A: 3.25

Q: With LRHSFQKQQREKTRWLNSGRGDDA [E23D] as the variant, how does the protein stability index read?
A: 3.6

Q: Which protein stability index does the source give for LRHSFQKQQREKTRWLNSGRGDCA [E23C] here?
A: 3.54

Q: For LRHSFQKQQREKTRWLNSGRGDHA [E23H], which protein stability index is on record?
A: 3.23

Q: For LRHSFQKQQREKTRWLNSGRGDAA [E23A], which protein stability index is on record?
A: 3.98

Q: With LRHSFQKQQREKTRWLNSGRGDPA [E23P] as the variant, how does the protein stability index read?
A: 3.75

Q: With LRHSFQKQQREKTRWLNSGRGDKA [E23K] as the variant, how does the protein stability index read?
A: 2.73

Q: Which protein stability index does the source give for LRHSFQKQQREKTRWLNSGRGDYA [E23Y] here?
A: 2.66

Q: Which protein stability index does the source give for LRHSFQKQQREKTRWLNSGRGDWA [E23W] here?
A: 2.77

Q: With LRHSFQKQQREKTRWLNSGRGDVA [E23V] as the variant, how does the protein stability index read?
A: 3.47

Q: Which protein stability index does the source give for LRHSFQKQQREKTRWLNSGRGDRA [E23R] here?
A: 3.49

Q: Which protein stability index does the source give for LRHSFQKQQREKTRWLNSGRGDLA [E23L] here?
A: 2.38

Q: Which protein stability index does the source give for LRHSFQKQQREKTRWLNSGRWDEA [G21W] here?
A: 3.03

Q: With LRHSFQKQQREKTRWLNSGRTDEA [G21T] as the variant, how does the protein stability index read?
A: 3.33

Q: Which protein stability index does the source give for LRHSFQKQQREKTRWLNSGRVDEA [G21V] here?
A: 3.59

Q: For LRHSFQKQQREKTRWLNSGRYDEA [G21Y], which protein stability index is on record?
A: 3.01

From the supplement of paper PMC10567573
